T1: IKKβ(h) (human, UniProt O14920 1-756)
T1 sequence (looked up): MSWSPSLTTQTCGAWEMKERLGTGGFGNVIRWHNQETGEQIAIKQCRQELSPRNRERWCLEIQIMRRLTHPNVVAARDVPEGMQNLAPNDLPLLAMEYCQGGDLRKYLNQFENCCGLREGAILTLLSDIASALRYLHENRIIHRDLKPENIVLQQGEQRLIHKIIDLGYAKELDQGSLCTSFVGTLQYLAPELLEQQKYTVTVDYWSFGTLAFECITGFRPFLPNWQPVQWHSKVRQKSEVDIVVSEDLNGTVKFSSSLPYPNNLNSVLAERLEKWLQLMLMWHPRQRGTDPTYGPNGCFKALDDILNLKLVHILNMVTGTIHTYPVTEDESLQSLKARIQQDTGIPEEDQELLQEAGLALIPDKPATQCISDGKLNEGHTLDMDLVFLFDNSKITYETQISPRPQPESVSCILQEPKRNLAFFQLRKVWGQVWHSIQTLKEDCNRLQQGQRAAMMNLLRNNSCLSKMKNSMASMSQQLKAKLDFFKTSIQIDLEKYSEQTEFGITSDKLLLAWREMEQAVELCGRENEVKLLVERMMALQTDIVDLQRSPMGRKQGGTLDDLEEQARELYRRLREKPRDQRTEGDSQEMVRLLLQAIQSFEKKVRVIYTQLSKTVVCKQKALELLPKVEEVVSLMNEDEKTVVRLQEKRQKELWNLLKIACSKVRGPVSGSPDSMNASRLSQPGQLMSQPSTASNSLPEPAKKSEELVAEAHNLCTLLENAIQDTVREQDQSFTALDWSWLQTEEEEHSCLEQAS

T2: EphB1(h) (human, UniProt P54762 564-984, limits assumed)
T2 sequence (looked up): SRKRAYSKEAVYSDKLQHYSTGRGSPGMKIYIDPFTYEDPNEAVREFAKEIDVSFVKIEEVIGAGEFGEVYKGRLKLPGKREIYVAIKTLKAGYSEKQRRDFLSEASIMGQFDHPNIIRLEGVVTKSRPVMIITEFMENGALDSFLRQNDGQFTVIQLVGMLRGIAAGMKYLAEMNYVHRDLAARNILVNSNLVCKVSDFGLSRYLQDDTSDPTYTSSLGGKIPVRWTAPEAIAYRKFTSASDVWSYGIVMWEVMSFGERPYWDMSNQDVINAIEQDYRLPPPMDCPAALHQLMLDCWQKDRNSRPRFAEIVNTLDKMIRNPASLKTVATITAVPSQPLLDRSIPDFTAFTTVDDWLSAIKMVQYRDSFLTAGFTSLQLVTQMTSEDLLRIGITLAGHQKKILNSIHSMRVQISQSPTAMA


How the values were obtained:
Assay in all cases: cell-based or functional assay
MAPKAP-K2(h) = MAPKAP-K2(h) (human, UniProt P49137 46-400)
MAPKAP-K3(h) = MAPKAP-K3(h) (human, UniProt Q16644 1-382, limits assumed)
TrkB(h) = TrkB(h) (human, UniProt Q16620 455-822, limits assumed)
CaMKI(h) = CaMKI(h) (human, UniProt Q14012 1-370)
HIPK3(h) = HIPK3(h) (human, UniProt Q9H422 163-562, limits assumed)
IKKβ(h) = target: T1, IKKβ(h)
JAK2(h) = JAK2(h) (human, UniProt O60674 808-1132, limits assumed)
Lck(h) = Lck(h) (human, UniProt P06239 1-509)
MAPK2(h) = MAPK2(h) (human, UniProt P28482 1-360)
PAK5(h) = PAK5(h) (human, UniProt Q9P286 1-719, limits assumed)
Plk3(h) = Plk3(h) (human, UniProt Q9H4B4 58-340, limits assumed)
VRK2(h) = VRK2(h) (human, UniProt Q86Y07 1-508, limits assumed)
CK1γ1(h) = CK1γ1(h) (human, UniProt Q9HCP0 1-422)
Abl(M351T)(h) = Abl(M351T)(h) (human, UniProt P00519 27-1130, limits assumed)
EphB1(h) = target: T2, EphB1(h)
Abl(Q252H)(h) = Abl(Q252H)(h) (human, UniProt P00519 27-1130, limits assumed)
ACK1(h) = ACK1(h) (human, UniProt Q07912 110-476, limits assumed)
PKA(h) = PKA(h) (human, UniProt P17612 1-351)
PKGη(h) = PKGη(h) (human)
Plk1(h) = Plk1(h) (human, UniProt P53350 1-603)
SRPK2(h) = SRPK2(h) (human, UniProt P78362 1-688, limits assumed)
Tie2(R849W)(h) = Tie2(R849W)(h) (human, UniProt Q02763 771-1124, limits assumed)
TLK2(h) = TLK2(h) (human, UniProt Q86UE8 1-772, limits assumed)
CK2α2(h) = CK2α2(h) (human, UniProt P19784 1-350)
EGFR(L858R)(h) = EGFR(L858R)(h) (human, UniProt P00533 696-1210, limits assumed)
FAK(h) = FAK(h) (human, UniProt Q05397 1-1052, limits assumed)

| Binder | inhibition of kinase activity at 100 µM (MAPKAP-K2(h)) [%] | inhibition of kinase activity at 100 µM (MAPKAP-K3(h)) [%] | inhibition of kinase activity at 100 µM (TrkB(h)) [%] | inhibition of kinase activity at 100 µM (CaMKI(h)) [%] | % activity, 100 µM (IKKβ(h)) [%] | % activity, 100 µM (MAPK2(h)) [%] | % activity, 100 µM (Plk3(h)) [%] | % activity, 100 µM (VRK2(h)) [%] | % activity, 100 µM (EphB1(h)) [%] | % activity, 100 µM (Abl(Q252H)(h)) [%] | further results |
| --- | --- | --- | --- | --- | --- | --- | --- | --- | --- | --- | --- |
| FAKLAARLYRKALARQLGVAA [MMI-0300] | > 65 | > 65 | > 65 | > 65 | 84 | 98 | 127 | 161 | 44 | 82 | % activity, 100 µM (HIPK3(h)): 93%; % activity, 100 µM (JAK2(h)): 133%; % activity, 100 µM (Lck(h)): -2%; % activity, 100 µM (PAK5(h)): 110%; % activity, 100 µM (CK1γ1(h)): 111%; % activity, 100 µM (Abl(M351T)(h)): 90% |
| KAFAKLAARLYRKALARQLGVAA [MMI-0400] | > 65 | > 65 | > 65 | > 65 | 84 | 93 | 129 | 185 | 58 | 98 | % activity, 100 µM (ACK1(h)): 95%; % activity, 100 µM (PKA(h)): 119%; % activity, 100 µM (PKGη(h)): 98%; % activity, 100 µM (Plk1(h)): 119%; % activity, 100 µM (SRPK2(h)): 97%; % activity, 100 µM (Tie2(R849W)(h)): 108%; % activity, 100 µM (TLK2(h)): 151%; % activity, 100 µM (CK2α2(h)): 96%; % activity, 100 µM (EGFR(L858R)(h)): 52%; % activity, 100 µM (FAK(h)): 96% |

— US20140072613A1 (published 2014)
